Changes are numbered by the printed parent chain. Like-named read-outs stand apart in the source and are kept apart here. Peptide text beside a SMILES is read from it.
Columns and labels:
GIRK1/4 channel = target: T1, GIRK1/4 channel (Rattus norvegicus, UniProt P48548+P63251); assay: cell-based; conditions: for inhibition at 1 µM: read-out: inhibition of the GIRK1/4 channel
T1 construct: expressed in transfected cells; host or cells: Xenopus laevis oocytes (cRNA injection)
T1 sequence (P63251 1-501): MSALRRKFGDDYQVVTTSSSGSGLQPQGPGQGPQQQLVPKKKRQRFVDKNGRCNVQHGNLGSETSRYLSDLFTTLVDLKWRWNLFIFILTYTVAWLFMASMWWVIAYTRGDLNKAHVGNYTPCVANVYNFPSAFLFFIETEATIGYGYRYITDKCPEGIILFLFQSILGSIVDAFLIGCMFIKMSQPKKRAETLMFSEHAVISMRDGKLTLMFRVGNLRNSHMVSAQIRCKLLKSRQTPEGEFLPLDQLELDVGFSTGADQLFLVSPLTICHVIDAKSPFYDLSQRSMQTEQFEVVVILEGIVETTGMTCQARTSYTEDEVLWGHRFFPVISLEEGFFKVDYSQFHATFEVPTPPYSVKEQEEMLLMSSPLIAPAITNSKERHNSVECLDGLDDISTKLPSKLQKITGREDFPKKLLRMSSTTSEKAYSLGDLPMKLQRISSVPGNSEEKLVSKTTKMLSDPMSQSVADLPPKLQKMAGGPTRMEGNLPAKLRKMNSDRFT
T1 sequence (P48548 1-419): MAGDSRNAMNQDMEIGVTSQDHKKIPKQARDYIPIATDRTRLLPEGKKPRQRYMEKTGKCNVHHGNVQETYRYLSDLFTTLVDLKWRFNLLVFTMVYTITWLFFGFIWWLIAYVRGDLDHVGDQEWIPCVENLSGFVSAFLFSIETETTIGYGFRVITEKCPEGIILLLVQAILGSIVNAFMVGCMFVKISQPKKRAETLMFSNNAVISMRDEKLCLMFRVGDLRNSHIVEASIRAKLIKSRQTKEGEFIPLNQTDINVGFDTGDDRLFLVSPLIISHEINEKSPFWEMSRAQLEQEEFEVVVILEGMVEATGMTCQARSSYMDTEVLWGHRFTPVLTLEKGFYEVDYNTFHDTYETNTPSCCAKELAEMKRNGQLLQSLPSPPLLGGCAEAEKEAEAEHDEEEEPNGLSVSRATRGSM

[1] = target: T2, GIRK1/4 inward-rectifier K+ channel, P63251
T2 chain 1: T1 sequence (P63251 1-501)
T2 chain 2: T1 sequence (P48548 1-419)

[2] = target: T2, GIRK1/4 inward-rectifier K+ channel, …
[3] = target: T2, GIRK1/4 inward-rectifier K+ channel, …
[4] = target: T3, ROMK1 inward-rectifier K+ channel (wild-type), P35560
T3 chain: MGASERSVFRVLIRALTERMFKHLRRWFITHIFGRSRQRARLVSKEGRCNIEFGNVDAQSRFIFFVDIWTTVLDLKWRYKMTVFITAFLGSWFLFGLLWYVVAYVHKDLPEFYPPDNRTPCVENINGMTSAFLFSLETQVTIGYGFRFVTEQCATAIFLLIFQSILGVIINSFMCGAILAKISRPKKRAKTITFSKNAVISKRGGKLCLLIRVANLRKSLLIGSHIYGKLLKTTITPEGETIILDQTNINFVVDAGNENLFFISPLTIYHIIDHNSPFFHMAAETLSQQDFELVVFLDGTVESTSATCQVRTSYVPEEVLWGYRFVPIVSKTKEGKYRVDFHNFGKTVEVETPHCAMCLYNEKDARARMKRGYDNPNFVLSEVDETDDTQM

[5] = target: T2, GIRK1/4 inward-rectifier K+ channel, …; assay: cell-based or functional assay
[6] = target: T4, ROMK1 I142L channel, P35560
T4 chain: T3 chain with I142L

[7] = target: T5, ROMK1 N171D channel, P35560
T5 chain: T3 chain with N171D

[8] = target: T6, ROMK1 F146A channel, P35560
T6 chain: T3 chain with F146A

[9] = target: T7, ROMK1 G127S channel, P35560
T7 chain: T3 chain with G127S

[10] = target: T8, ROMK1 N124A channel, P35560
T8 chain: T3 chain with N124A

CC[C@H](C)[C@H](N)C(=O)N[C@@H](CCCCN)C(=O)N[C@H]1CSSC[C@@H]2NC(=O)[C@H]([C@@H](C)CC)NC(=O)[C@H](Cc3c[nH]cn3)NC(=O)[C@@H]3CCCN3C(=O)[C@H](CCCCN)NC(=O)[C@H]([C@@H](C)CC)NC(=O)[C@H](C(C)C)NC(=O)[C@H](Cc3c[nH]cn3)NC(=O)[C@H](CCCNC(=N)N)NC(=O)[C@H](CCCCN)NC(=O)[C@H](CSSC[C@@H](C(=O)NCC(=O)N[C@@H](CCCCN)C(=O)N[C@@H](CC(N)=O)C(N)=O)NC(=O)[C@H]([C@@H](C)CC)NC(=O)[C@H](CCCCN)NC(=O)[C@H](CCCNC(=N)N)NC2=O)NC(=O)[C@H](CC(N)=O)NC1=O [MCDP, mast cell degranulating peptide] (HELM PEPTIDE1{I.K.C.N.C.K.R.H.V.I.K.P.H.I.C.R.K.I.C.G.K.N.[am]}$PEPTIDE1,PEPTIDE1,3:R3-15:R3|PEPTIDE1,PEPTIDE1,5:R3-19:R3$$$V2.0; N-terminus and C-terminus assumed; bridges inferred)
effect on / sensitivity of the GIRK1/4 channel, in words (GIRK1/4 channel): do not inhibit the activity
inhibition at 1 µM (GIRK1/4 channel): 20 to 30%

CC(C)C[C@@H]1NC(=O)[C@H](C)NC(=O)[C@H]([C@@H](C)O)NC(=O)[C@H](CCC(=O)O)NC(=O)[C@@H]2CCCN2C(=O)[C@H](C)NC(=O)[C@H](CCCCN)NC(=O)[C@@H]2CSSC[C@@H](C(=O)N[C@@H](CCC(N)=O)C(=O)N[C@@H](CCC(N)=O)C(=O)N[C@@H](Cc3cnc[nH]3)C(N)=O)NC(=O)[C@H](CCCNC(=N)N)NC(=O)[C@H](CCCNC(=N)N)NC(=O)[C@H](C)NC(=O)[C@H](CSSC[C@H](N)C(=O)N[C@@H](CC(N)=O)C(=O)N2)NC1=O [apamin]
Kd (GIRK1/4 channel; GIRK1/4, read-out: affinity of the channel (Kd)): > 1000 nM
inhibition at 1 µM (GIRK1/4 channel; at 1 μM concentration): 20 to 30%

CNCKAPETALCARRCQQH (modifications not checked) [apamin, P01500 28-45]
fold lower affinity than for tertiapin [1]: > 100 fold
Kd [2]: > 1000 nM

ALCNCNRIIIPHMCWKKCGKK (modifications not checked) [native tertiapin]
Kd [3]: 8.2 nM

ALCNCNRIIIPHMCWKKCGKK (modifications not checked) [synthetic tertiapin]
Kd [1]: 8 nM
Kd [3]: 8.6 nM
Kd [4]: 2 nM
inhibition of the GIRK1/4 current at 10 nM [5]: 50%
fold lower affinity than the wild-type ROMK1 channel [6]: 8 fold
Kd [7]: 1.5 nM
Kd [8]: 65.2 nM
Kd [9]: 2.7 nM
Kd [10]: 13.9 nM

IKCNCKRHVIKPHICRKICGKN (modifications not checked) [mast cell degranulating peptide, P01499 28-49]
fold lower affinity than for tertiapin [1]: > 100 fold
Kd [2]: > 1000 nM
